From publication PMC3469540

System: PSC (Posterior Sex Combs) (Drosophila)
Test: centrifugation (array oligomerization)
Details: 50% of template pelleted; saturates at 2 PSC per nucleosome; not an affinity; Buffer, salt, pH and temperature of the nucleic acid binding assays not given in the material; EMSA on 0.8% agarose, 0.5X TBE after glutaraldehyde …

Q: With 12-nucleosome array as the substance, how does the K half (PSC per nucleosome) read?
A: 0.25
